# Experiment: soluble on expression in E. coli; label from the status in PepcDB or PDB records
row,Sequence,soluble on expression in E. coli
1,MNFENLLIELGTEELPPKALRKLAESFLANFTEELTKADLAFKSAVWYAAPRRLALNITELAIAQADKIVEKRGPAVSSAFDAGGKPTKAAEGWARGNGITVDQAERLVTDKGEWLVYNAKVEGVETKSLVAAMAQRALDKLPIPKPMRWGSSKTQFIRPVHTATMLLGSELIEGELLGIKSARNIRGHRFMGTGFELDHADNYLTLLKEKGKVIADYESRKALIKADAEKAAAKIGGTADIEDALLEEVTSLVEWPVVLTASFEEKFLSVPSEALVYTMKGDQKYFPVFDDAGKLLPNFIFVANIESKDPAQIISGNEKVVRPRLADAEFFFNTDKKHTLESRLPSLETVLFQQQLGTLKDKVTRISALAAFIAEQTGANAVDAARAGLLSKTDLMTNMVMEFTDTQGTMGMHYARLDGETEAVALAMEEQYKPKFSGDTVPTAAVSCAVALADKLDTLVGIFGIGQAPKGAADPFALRRAAIGVLRIIVENKLPLDLVTLIAKAQELHGANLSNANASEEVLEFLMARFRAWYQDKGINVDVILAVLARRPTR,not soluble
2,MNFLDAVYNAGVVGAGGAGFPTHLKMTKEVGTFIVNGAECEPLLEVDKFLMREKTYELIKGMEIIAGNLKAARVVLGLKKKYKVEIKKLSETIKELDSNVELFLMDNFYPAGDEQIMVKDITGKSIPAGGIPLDVDTVVSNVGTVINVYEAIEEKPVTKKYVSVLGEVNNPVMLEVPIGTSFEECIKRAGGVKIKNYAVIEGGPMMGKIVHRDELAEKAVIKTTGALIILPEDHYVIKRKERPEAHILNESRAACIQCRMCTDMCPRYLIGHKLRPHRVMRAMGMGEQDEEILKEALICCECNVCELFACPMGISPKSTNTYLKGVFREKGVRYDGNKEIPSEHEMRDYRKIPVNRLIARLNLSRYYNNKVADLQELKADKVKIFLSQHIGKPAVPLVKEGDRVIEGQRIAEVGREEFGANIHASINGVVTKVEKSYIEIDGMV,not soluble
3,MNFQKLLKEAQKAQKKAAEVQERLERMTVVGSAQGLVEVEANGHGKILALRLKPEALKAFQDDPEGLEDLLLVAIQDAQTKAHELSEKEMAKELGGVGQMLGKLF,soluble
4,MNFRTGQPSDAAALAAISIEVWLGTYMRKGVSAFFAEYALNEFTSTKMASLLKDPNEHVIVSENEGGIDAFIRLGQGRAAPVSGCSTLEIATLYVQPRHHRRGLGRALLEQGLAYARQASAPSVWLTTNSENAPAIAFYLEQGFEKVGTTHFNIGDQAYLNDVFRRIVSM,soluble
5,MNFTRLLNQVLSTVQKKGNTFSDSPLNSFGGGALVAGVASMLLNGKNRKTITKIGSTAALGYLAYRGYQMWQQNKGRATVTQSDFQPAGETEETYSRTVLRTMIAAAASDGMIDEAERRTIEQESGTDPETAAWLAAEYRLPASIEDIAAAVGNDEALAAEAYLAARLVCADLSRKETVFLARLSQALKLDDNLVESLERQLGF,not soluble
6,MNGIHDVGGMDGFGKVMYVKEEEDIYFTHDWERLALGLVAGCMAQGLGMKAFDEFRIGIELMRPVDYLTSSYYGHWIATVAYNLVDTGVLDEKELDERTEVFSKKPDTKIPRREDPALVKLVEKALNDGLSPLREISASPRFKVGERIKTKNIHPTGHTRFPRYARDKYGVIDEVYGAHVFPDDAAHRKGENPQYLYRVRFEAEELWGYKQKDSVYIDLWESYMEPVSH,soluble
7,MNGNHSAPAIAIAVIDGCDGLWREVLLGIEEEGIPFRLQHHPAGEVVDSAWQAARSSPLLVGIACDRHMLVVHYKNLPASAPLFTLMHHQDSQAHRNTGNNAARLVKGIPFRDLNSEATGEQQDE,soluble
8,MNHKVHHHHHHIEGRHMKVLILGAGNIGRAIAWDLKDEFDVYIGDVNNENLEKVKEFATPLKVDASNFDKLVEVMKEFELVIGALPGFLGFKSIKAAIKSKVDMVDVSFMPENPLELRDEAEKAQVTIVFDAGFAPGLSNILMGRIFQELDLKEGYIYVGGLPKDPKPPLYYKITWSPRDLIEEYTRPARVIRNGKVSKVDPLSEVKKVKIGKFEFEAFISDGLRSMLETINSERLEEWTLRWPGHLEKIKVLRELGFFKPENLDFTLRVIEPLMRYETKDFSIMKVVGKGEEGEMEFFLYDEEDSMFSSMSRVTGFTAAIISRIVAENTCTFGVIPPEILGMREDTFRRIIDELKERGISIEGT,soluble
9,MNHLGKTEVFLNRFALRPLNPEELRPWRLEVVLDPPPGREEVYPLLAQVARRAGGVTVRMGDGLASWSPPEVLVLEGTLARMGQTYAYRLYPKGRRPLDPKDPGERSVLSALARRLLQERLRRLEGVWVEGLAVYRREHARGPGWRVLGGAVLDLWVSDSGAFLLEVDPAYRILCEMSLEAWLAQGHPLPKRVRNAYDRRTWELLRLGEEDPKELPLPGGLSLLDYHASKGRLQGREGGRVAWVADPKDPRKPIPHLTGLLVPVLTLEDLHEEEGSLALSLPWEERRRRTREIASWIGRRLGLGTPEAVRAQAYRLSIPKLMGRRAVSKPADALRVGFYRAQETALALLRLDGAQGWPEFLRRALLRAFGASGASLRLHTLHAHPSQGLAFREALRKAKEEGVQAVLVLTPPMAWEDRNRLKALLLREGLPSQILNVPLREEERHRWENALLGLLAKAGLQVVALSGAYPAELAVGFDAGGRESFRFGGAACAVGGDGGHLLWTLPEAQAGERIPQEVVWDLLEETLWAFRRKAGRLPSRVLLLRNGRVPQDEFALALEALAREGIAYDLVSVRKSGGGRVYPVQGRLADGLYVPLEDKTFLLLTVHRDFRGTPRPLKLVHEAGDTPLEALAHQIFHLTRLYPASGFAFPRLPAPLHLADRLVKEVGRLGIRHLKEVDREKLFFV,soluble
10,MNIATRPADYWQAIIFDFDGVIVESGDIKAQAFAELYRHHGETIAQAAVTYHRANGGMSRYLKFHYFQQNLLNYPPLTKEEEQELDRRFSELVMNAVISCQPVAGAEALLHRMVDQIPLFVASGTPESELRIIVEQRDLSRYFTEVRGSPRLKETLVADILSAYPLVPERVLMIGDALVDYESAHQNGIAFLGRVRPGDDNPFPESVEIVPDLCPVAI,soluble
11,MNIEEFTSGLAEKGISLSPRQLEQFELYYDMLVEWNEKINLTSITEKKEVYLKHFYDSITAAFYVDFNQVNTICDVGAGAGFPSLPIKICFPHLHVTIVDSLNKRITFLEKLSEALQLENTTFCHDRAETFGQRKDVRESYDIVTARAVARLSVLSELCLPLVKKNGLFVALKAASAEEELNAGKKAITTLGGELENIHSFKLPIEESDRNIMVIRKIKNTPKKYPRKPGTPNKSPIEG,soluble
12,MNIELLQQLCEASAVSGDEQEVRDILINTLEPCVNEITFDGLGSFVARKGNKGPKVAVVGHMDEVGFMVTHIDESGFLRFTTIGGWWNQSMLNHRVTIRTHKGVKIPGVIGSVAPHALTEKQKQQPLSFDEMFIDIGANSREEVEKRGVEIGNFISPEANFACWGEDKVVGKALDNRIGCAMMAELLQTVNNPEITLYGVGSVEEEVGLRGAQTSAEHIKPDVVIVLDTAVAGDVPGIDNIKYPLKLGQGPGLMLFDKRYFPNQKLVAALKSCAAHNDLPLQFSTMKTGATDGGRYNVMGGGRPVVALCLPTRYLHANSGMISKADYEALLTLIRGFLTTLTAEKVNAFSQFRQVD,not soluble
13,MNIKSLQLFIHLCESKSFAKTAAAMHISPSALSRQIQKLEEETNQQLFVRDNRSVELTTQGKKLMPVALKILSEWQQYQNHIKGTEGELKGEIRLFCSVTASYSHLPELISDFRLQHPFIEFKLSTGDPAQAIDKILADEADIAISAKSEQMPNKIAFET,not soluble
14,MNINKKVTLQRIQTLTELHGAPGFEEEVKNYMTQQMAPYVDEFIENRMGGFFGVKKSKNPNAKRVMIAAHMDEIGFMITNITKNGMIQFTNLGGVANDIWQGQRLVIKNRNGDKIIGVVSNIPKHFRTGSEGAPEIKDLTLDIGAQNEDEVRERGIDIGDTIVPHTPFTQLSEHRYSAKAWDNRYGCVLAIEILELLKDIELDVDLYVGANVQEEVGLRGAKASAEMIDPDVAFVVDCSPANDVKGNQPLSGELGKGTLIRIKDGTMILKPVFRDYLLKLVEAHDIEHQYYMSPGGTDGGEIHKANIGIPTAVIGVCARYIHSTDSVFDIRDYFAARSLLSEAICNLDNNQIETLQYK,not soluble
